Test results taken from US20110165066A1 (AbbVie / Abbott, published 2011).
Where “and” joins values, the source holds several entries; their conditions need not be identical. Equal entries are not always repeated.

Experiments:
human IL-13 wild type [1] = target: T1, human IL-13 wild type (human, UniProt P35225 35-146); test: cell-based or functional assay
[2] = target: T2, human IL-13 variant (R130Q) (human, UniProt P35225 35-146); test: cell-based or functional assay
cynomolgus IL-13 [3] = target: T3, cynomolgus IL-13 (cynomolgus, UniProt Q0PW92 21-132); test: cell-based or functional assay
[4] = target: T2, human IL-13 variant (R130Q); test: not stated in the sentence (Biacore elsewhere)
cynomolgus IL-13 [5] = target: T3, cynomolgus IL-13; test: not stated in the sentence (Biacore elsewhere)
[6] = target: T2, human IL-13 variant (R130Q); test: SPR (Biacore), mAb captured, IL-13 as analyte
Protocol: (§1) The BIACORE assay (Biacore, Inc, Piscataway, N.J.) determines the affinity of antibodies with kinetic measurements of on-, off-rate constants. […] All chemicals were obtained from Biacore® AB (Uppsala, Sweden) or otherwise from a different source as described in the text. Approximately 5000 RU of goat anti-mouse IgG, (Fcγ), fragment specific polyclonal antibody (Pierce Biotechnology Inc, Rockford, Ill.) diluted in 10 mM sodium acetate (pH 4.5) was directly immobilized across a CM5 research grade biosensor chip using a standard amine coupling kit according to manufacturer's instructions and procedures at 25 μg/ml. Unreacted moieties on the biosensor surface were blocked with ethanolamine. Modified carboxymethyl dextran surface in flowcell 2 and 4 was used as a reaction surface. Unmodified carboxymethyl dextran without goat anti-mouse IgG in flow cell 1 and 3 was used as the reference surface. For kinetic analysis, rate equations derived from the 1:1 Langmuir binding model were fitted simultaneously to association and dissociation phases of all eight injections (using global fit analysis) with the use of Biaevaluation 4.0.1 software. Purified antibodies were diluted in HEPES-buffered saline for capture across goat anti-mouse IgG specific reaction surfaces. Mouse antibodies to be captured as a ligand (25 μg/ml) were injected over reaction matrices at a flow rate of 5 μl/min. The association and dissociation rate constants, kₒₙ (unit M⁻¹s⁻¹) and koff (unit s⁻¹) were determined under a continuous flow rate of 25 μl/min Rate constants were derived by making kinetic binding measurements at ten different antigen concentrations ranging from 10-200 nM. […] Binding is recorded as a function of time and kinetic rate constants are calculated.

mouse IL-13 [7] = target: T4, mouse IL-13 (mouse, UniProt P20109 26-131, limits assumed); test: indirect ELISA, captured mAb, biotinylated mouse IL-13
T4 construct: also called mIL-13; murine IL-13
T4 sequence (looked up): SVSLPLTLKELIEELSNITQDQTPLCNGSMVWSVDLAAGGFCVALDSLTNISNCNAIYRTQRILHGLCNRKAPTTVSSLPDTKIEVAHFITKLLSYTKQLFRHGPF
Protocol: Murine anti-human IL-13 mAbs were prepared at various concentrations ranging from 0.1 to 100 ng/ml in PBS containing 0.1% BSA; 50 ul of each antibody dilution was added to the coated ELISA plate and incubated for 1 hour at room temperature. Wells were washed 3 times with PBS containing 0.05% Tween-20. […] Wells were washed 3 times with PBS containing 0.05% Tween-20. Streptavidin HRP (Pierce #21126, Rockland, Ill.) was diluted 1:20000 in PBS containing 0.1% BSA; […] was added and the plates incubated for 1 hour at room temperature. Plates were washed 3 times with PBS containing 0.05% Tween-20. Fifty microliters of TMB solution (Sigma # T0440, St. Louis, Mo.) was added to each well and incubated for 10 minutes at room temperature. The reaction was stopped by addition of 1N sulphuric acid. Plates were read spectrophotmetrically at a wavelength of 450 nm.

human IL-13 wild type [8] = target: T1, human IL-13 wild type; test: SPR (Biacore), mAb captured, IL-13 as analyte; native recombinant human wild-type IL-13, Biacore
Protocol: as §1

human IL-13 wild type [9] = target: T1, human IL-13 wild type; test: blocking of IL-13 binding to IL-13Rα2: cell surface RBA (125I-IL-13, transfected COS cells) and receptor binding ELISA (IL-13Rα2/Fc); native IL-13 in solution; blocking of binding to IL-13Rα2, cell surface RBA and RB ELISA; lower end of range
Protocol: (§2) The plates were washed again 5 times with 300 ul 0.1% PBST, followed by addition of TMB substrate reagent (100 ul/well, Pharmingen); developed for 5 min, and stopped by adding 50 ul of 2M H2SO4 (VWR). ODs at 450 nm were determined by spectrophotometry.
(§3) Additionally, the receptor blocking properties of the mAbs were also assessed by receptor binding assay using IL-13Rα2-transfected COS cells. Recombinant human IL-13 was labeled with ¹²⁵I (Amersham, Arlington Heights, Ill.), using IODO-GEN reagent (Pierce, Rockford, Ill.) as previously described (Obiri N I et al., (1995) J Biol Chem. 270:8797-8804). […] For binding experiments, COS cells were transiently transfected with human IL-13Rα2 by Lipofectamine 2000 (Invitrogen), and incubated for 48 hr. Transfected COS cells (5×10^5 cells in 100 μL binding buffer: RPMI 1640 containing 0.2% human serum albumin and 10 mmol HEPES) were incubated with 1.0 nM ¹²⁵I-IL-13 with or without 1 uM unlabeled IL-13 at 4° C. for 2 hours. Cell-bound ¹²⁵I-IL-13 was separated from unbound ¹²⁵I-IL-13 by centrifugation through a phthalate oil gradient, and radioactivity was determined with a gamma counter (Wallac, Gaithersburg, Md.).

human IL-13 wild type [10] = target: T1, human IL-13 wild type; test: blocking of IL-13 binding to IL-13Rα2: cell surface RBA (125I-IL-13, transfected COS cells) and receptor binding ELISA (IL-13Rα2/Fc); native IL-13 in solution; blocking of binding to IL-13Rα2, cell surface RBA and RB ELISA; upper end of range
Protocol: as §2, §3

mouse IL-13 [11] = target: T4, mouse IL-13; test: SPR (Biacore)
mouse IL-13 [12] = target: T4, mouse IL-13; test: cell-based or functional assay
mouse IL-13 [13] = target: T4, mouse IL-13; test: BIACORE against recombinant mouse IL-13
human IL-13 wild type [14] = target: T1, human IL-13 wild type; test: SPR (Biacore), mAb captured, IL-13 as analyte
Protocol: as §1

[15] = target: T2, human IL-13 variant (R130Q); test: SPR (Biacore), mAb captured, IL-13 as analyte; row shifted, read as variant IL-13 columns
Protocol: as §1

human IL-13 wild type [16] = target: T1, human IL-13 wild type; test: SPR (Biacore)
Protocol: as §1

human IL-13 wild type [17] = target: T1, human IL-13 wild type; test: SPR (Biacore); remark: listed apart in the source
[18] = target: T2, human IL-13 variant (R130Q); test: SPR (Biacore)
human IL-13 wild type [19] = target: T1, human IL-13 wild type; test: cell-based or functional assay; remark: listed apart in the source
[20] = target: T2, human IL-13 variant (R130Q); test: cell-based or functional assay; remark: listed apart in the source
human IL-13 wild type [21] = target: T1, human IL-13 wild type; test: ELISA-based receptor binding assay, blocking biotin-IL-13 binding to IL-13Rα2/Fc
Protocol: After 16 hr, coating solution was removed by flicking plate contents in sink, and plates were washed and blocked 4 times with Superblock Blocking Buffer (240 ul/well) (Pierce). […] Plates were washed 5 times with 300 ul 0.1% PBST, and then 100 ul of 1:5000 diluted mouse anti-Biotin MAb (Jackson Immunosciences) was added and incubated at RT for 45 min. The plates were washed again 5 times with 300 ul 0.1% PBST, followed by addition of TMB substrate reagent (100 ul/well, Pharmingen); developed for 5 min, and stopped by adding 50 ul of 2M H2SO4 (VWR). ODs at 450 nm were determined by spectrophotometry.

human IL-13 wild type [22] = target: T1, human IL-13 wild type; test: cell surface-based receptor binding assay, blocking 125I-IL-13 binding to IL-13Rα2-transfected COS cells
Protocol: Recombinant human IL-13 was labeled with ¹²⁵I (Amersham, Arlington Heights, Ill.), using IODO-GEN reagent (Pierce, Rockford, Ill.) as previously described (Obiri N I et al., (1995) J Biol Chem. 270:8797-8804). […] Transfected COS cells (5×10^5 cells in 100 μL binding buffer: RPMI 1640 containing 0.2% human serum albumin and 10 mmol HEPES) were incubated with 1.0 nM ¹²⁵I-IL-13 with or without 1 uM unlabeled IL-13 at 4° C. for 2 hours. Cell-bound ¹²⁵I-IL-13 was separated from unbound ¹²⁵I-IL-13 by centrifugation through a phthalate oil gradient, and radioactivity was determined with a gamma counter (Wallac, Gaithersburg, Md.).

human IL-13 wild type [23] = target: T1, human IL-13 wild type; test: receptor binding assays (cell surface-based on IL-13Rα2-transfected COS cells and ELISA-based with IL-13Rα2/Fc), 13C5.5 blocking human IL-13 binding to human IL-13Rα2; range told over both assays

T2 sequence (P35225 35-146 limits assumed, stated change not applied): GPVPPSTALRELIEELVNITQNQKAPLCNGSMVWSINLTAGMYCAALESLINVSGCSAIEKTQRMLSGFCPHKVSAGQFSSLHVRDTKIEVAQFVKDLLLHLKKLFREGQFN
T1 sequence (P35225 other isoform, or with tags, fused parts or gaps limits assumed): as the sequence (P35225 35-146 limits assumed, stated change not applied) above, with Q110R counted along it
T3 sequence (Q0PW92 entry or part of it): as the sequence (P35225 35-146 limits assumed, stated change not applied) above, with G1S, R10K, M42V, S67N, H83R, L100V counted along it

B1: 13C5 (antibody, V domains shown)
VH: QVTLKESGPGILQPSQTLSLTCSFSGFSLSTSDMGVDWIRQPSGKGLEWLAHIWWDDVKRYNPALKSRLTISKDTSSSQVFLMLASVDTADTATYYCARTVSSGYIYYAMDYWGQGTSVTVSS
VL: DIQMTQTASSLSASLGDRVTISCRASQDIRNYLNWYQRKPDGTVKLLIFYTSKLHSGVPSRFSGSGSGTDYSLTIRNLEQEDIATYFCQQGNTLPLTFGGGTKLEIKR
notes: also called murine 13C5
Average IC50, IL-13-induced TARC production by A-549 cells (human IL-13 wild type [1]): 190 pM | Average IC50, IL-13-induced TARC production by A-549 cells [2]: 170 pM | Average IC50, IL-13-induced TARC production by A-549 cells (cynomolgus IL-13 [3]): 5000 pM | Kd [4]: 50 pM | Kd (cynomolgus IL-13 [5]): 1800 pM | Kd [6]: 75.9 pM | koff [6]: 4.35e-05 s⁻¹ | kon [6]: 574000 M⁻¹ s⁻¹ | binding result (mouse IL-13 [7]): no binding (tested: 0.1 to 100 ng/ml) | Kd (human IL-13 wild type [8]): 74.5 pM | koff (human IL-13 wild type [8]): 9.31e-05 s⁻¹ | kon (human IL-13 wild type [8]): 1.25e+06 M⁻¹ s⁻¹ | IC50 (human IL-13 wild type [9]): 1000 to 3000 pM | IC50 (human IL-13 wild type [10]): 1000 to 3000 pM

B2: 3H7 (antibody, mouse IgG1, V domains shown)
VH: EVQLVESGGGLVKPGGSLKLSCAASGFTFSTYAMSWVRQTPEKRLEWVAGISSGGSYTYYPETMKGRFTISRDNARNTLYLQMSSLRSEDTAIYYCTRGSWGQGTSVTVSS
VL: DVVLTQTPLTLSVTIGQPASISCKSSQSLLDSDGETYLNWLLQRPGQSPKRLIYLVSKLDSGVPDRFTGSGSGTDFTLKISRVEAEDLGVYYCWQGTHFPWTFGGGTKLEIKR
notes: Murine monoclonal; also called mAb 3H7
Kd (mouse IL-13 [11]): 12000 pM | Average IC50, IL-13-induced TARC production by A-549 cells [2]: 580 pM | Average IC50, IL-13-induced TARC production by A-549 cells (cynomolgus IL-13 [3]): 797 pM | IC50, A-549 bioassay against recombinant mouse IL-13 (mouse IL-13 [12]): 2430 pM | Kd (mouse IL-13 [13]): 11200 pM | binding result (human IL-13 wild type [14]): no binding | Kd [15]: 220 pM | koff [15]: 5.58e-05 s⁻¹ | kon [15]: 254000 M⁻¹ s⁻¹

B3: 13C5.5 (antibody, human IgG1, V domains shown)
VH: EVTLRESGPGLVKPTQTLTLTCTLYGFSLSTSDMGVDWIRQPPGKGLEWLAHIWWDDVKRYNPALKSRLTISKDTSKNQVVLKLTSVDPVDTATYYCARTVSSGYIYYAMDYWGQGTLVTVSS
VL: DIQMTQSPSSLSASVGDRVTISCRASQDIRNYLNWYQQKPGKAPKLLIFYTSKLHSGVPSRFSGSGSGTDYTLTISSLQPEDIATYYCQQGNTLPLTFGGGTKVEIK
notes: Humanized; The light chain row is printed 'VL 1305.5'; also called humanized 13C5; recombinant humanized antibody 13C5.5
Kd (human IL-13 wild type [16]): 70.1 pM | koff (human IL-13 wild type [16]): 0.000176 s⁻¹ | kon (human IL-13 wild type [16]): 2.51e+06 M⁻¹ s⁻¹ | Kd (human IL-13 wild type [17]): 70 pM | Kd [18]: 50 pM | Potency (IC50), A-549 bioassay (human IL-13 wild type [19]): 124 pM | Potency (IC50), A-549 bioassay [20]: 69 pM | IC50 (human IL-13 wild type [21]): 1100 pM | IC50 (human IL-13 wild type [22]): 2700 pM | IC50 (human IL-13 wild type [23]): ≥ 1000 pM and ≤ 3000 pM

B4: 51D9 (antibody, V domains shown)
VH: QIQLVQSGPELKKPGESVKISCKASGYTFTDYAMHWVKQAPGKGLKWMAWINTYTGKPTYADDFKGRFVFSLEASASTATLQISNLKNEDTATYFCARAGRTEGTHYYAMDAWGQGTSVTVSS
VL: DIVLTQSPVLAVSLGQRATISCRASQSVSISSSDLMHWYQQRPGHQPKLLIYRTSNLVSGIPARFSGSGSGTDFTLTIDPVQADDIAAYYCQQGRESPWTFGGGTKLELKR
IC50, A-549 bioassay against recombinant mouse IL-13 (mouse IL-13 [12]): 343 pM | Kd (mouse IL-13 [13]): 145 pM

B5: 48D3 (antibody, V domains shown)
VH: EVQLVESGGDLVQPGRSLKLSCAASGFTFSDYYMAWVRQAPTKGLEWVASISNDGISTYYRDSVKGRFTISREKAKSSLYLQMDSLRSEDTATYYCTTWNWEFGFFDYWGQGVMVTVSA
VL: DIVLTQSPALAVSLGQRATISCRASQSVTISRYNRMHWYQQRPGQQPKLLIYRSSYLASGIPARFSGSGSGTDFTLTIYPVQADDIATYYCQQNRESPWTFGGGTKLELNR
IC50, A-549 bioassay against recombinant mouse IL-13 (mouse IL-13 [12]): 49.1 pM | Kd (mouse IL-13 [13]): 105 pM
